# Assay results as given in PMC5823908, “Human mitochondrial pyruvate carrier 2 as an autonomous membrane transporter” (Scientific Reports, 2018).
# B1: purified human MPC2 after removal of GFP-10xHis (natural protein, UniProt O95563 1-127, looked up)
# chain: MSAAGARGLRATYHRLLDKVELMLPEKLRPLYNHPAGPRTVFFWAPIMKWGLVCAGLADMARPAEKLSTAQSAVLMATGFIWSRYSLVIIPKNWSLFAVNFFVGAAGASQLFRIWRYNQELKAKAHK
# notes: human mitochondrial pyruvate carrier 2 (MPC2), codon-optimized synthetic gene, NCBI NP_001137146.1; Residues of the PreScission site probably stay at the C-terminus after cleavage; also called purified MPC2; MPC2-detergent (DDM) complex; source: S. cerevisiae lacking endogenous MPC (3Δ); extracted with 1% C12E8, purified by Co-IMAC, PreScission Protease removal of GFP-10xHis, gel filtration in …
# Target: the molecule itself
# Experiment: cross-linking; purified MPC2-detergent (DDM) complex, about 10 μg protein, DSS 0.2-4 mM, 30 min, room temperature, 20 mM HEPES pH 8.0, 300 mM NaCl, 5% glycerol, 0.05 mM TCEP, 0.03% DDM
protein,measurement,value
B1,stoichiometry N,2
